Measured values: the supplement of paper PMC10065799, “High-throughput profiling of sequence recognition by tyrosine kinases and SH2 domains using bacterial peptide display” (eLife, 2023)

Experiments:
AncSZ = test: phosphorylation enrichment, bacterial display (enrichment ratio); higher = better substrate or ligand; peptides without Tyr show the background
EPHB1 = EPHB1 (UniProt P54762); test: as above
EPHB2 = EPHB2 (UniProt P29323); test: as above
FGFR1 = FGFR1 (UniProt P11362); test: as above
FGFR3 = FGFR3 (UniProt P22607); test: as above
Fer (mouse) = test: as above
Fes = Fes (UniProt P07332); test: as above
Fyn = Fyn (UniProt P06241); test: as above
Hck = Hck (UniProt P08631); test: as above
Jak2 = Jak2 (UniProt O60674); test: as above
MERTK = MERTK (UniProt Q12866); test: as above
c-Abl (mouse) = test: as above
c-Src = test: as above
Grb2 SH2 = Grb2 SH2 (UniProt P62993); test: SH2 binding enrichment of the phosphorylated peptide, bacterial display (enrichment ratio); higher = better substrate or ligand; peptides without Tyr show the background
SHP2-C SH2 = test: as above
c-Src SH2 = test: as above
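Wherever SH2 binding enrichment of the phosphorylated peptide, bacterial display is given: peptide library displayed on the E. coli surface as eCPX fusions, selected cells deep-sequenced, score is each peptide's frequency after selection divided by its frequency in the input.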
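Wherever phosphorylation enrichment, bacterial display is given: 11-residue human phosphosite peptides and single-mutation variants displayed on the E. coli surface, counted by deep sequencing, each peptide's frequency after selection divided by its frequency in the unselected input library; frequency after pTyr selection over input frequency; kinase dosed for 20-30% of maximal phosphorylation in three min.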

Fyn, sequence (P06241 whole entry, looked up): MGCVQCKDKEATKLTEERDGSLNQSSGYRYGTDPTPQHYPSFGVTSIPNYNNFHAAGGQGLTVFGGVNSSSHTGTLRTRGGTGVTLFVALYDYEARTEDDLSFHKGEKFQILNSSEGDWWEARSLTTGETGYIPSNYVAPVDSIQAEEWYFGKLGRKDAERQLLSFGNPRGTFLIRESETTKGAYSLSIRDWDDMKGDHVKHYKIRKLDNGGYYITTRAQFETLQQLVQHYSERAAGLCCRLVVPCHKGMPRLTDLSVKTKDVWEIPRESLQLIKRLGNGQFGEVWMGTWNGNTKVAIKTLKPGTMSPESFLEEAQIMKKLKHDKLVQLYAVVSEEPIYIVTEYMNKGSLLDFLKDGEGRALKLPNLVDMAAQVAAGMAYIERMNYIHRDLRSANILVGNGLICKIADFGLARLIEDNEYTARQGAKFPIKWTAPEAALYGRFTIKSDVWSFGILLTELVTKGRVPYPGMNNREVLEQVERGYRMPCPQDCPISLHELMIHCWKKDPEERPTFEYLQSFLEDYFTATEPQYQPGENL
EPHB1, sequence (P54762 whole entry, looked up): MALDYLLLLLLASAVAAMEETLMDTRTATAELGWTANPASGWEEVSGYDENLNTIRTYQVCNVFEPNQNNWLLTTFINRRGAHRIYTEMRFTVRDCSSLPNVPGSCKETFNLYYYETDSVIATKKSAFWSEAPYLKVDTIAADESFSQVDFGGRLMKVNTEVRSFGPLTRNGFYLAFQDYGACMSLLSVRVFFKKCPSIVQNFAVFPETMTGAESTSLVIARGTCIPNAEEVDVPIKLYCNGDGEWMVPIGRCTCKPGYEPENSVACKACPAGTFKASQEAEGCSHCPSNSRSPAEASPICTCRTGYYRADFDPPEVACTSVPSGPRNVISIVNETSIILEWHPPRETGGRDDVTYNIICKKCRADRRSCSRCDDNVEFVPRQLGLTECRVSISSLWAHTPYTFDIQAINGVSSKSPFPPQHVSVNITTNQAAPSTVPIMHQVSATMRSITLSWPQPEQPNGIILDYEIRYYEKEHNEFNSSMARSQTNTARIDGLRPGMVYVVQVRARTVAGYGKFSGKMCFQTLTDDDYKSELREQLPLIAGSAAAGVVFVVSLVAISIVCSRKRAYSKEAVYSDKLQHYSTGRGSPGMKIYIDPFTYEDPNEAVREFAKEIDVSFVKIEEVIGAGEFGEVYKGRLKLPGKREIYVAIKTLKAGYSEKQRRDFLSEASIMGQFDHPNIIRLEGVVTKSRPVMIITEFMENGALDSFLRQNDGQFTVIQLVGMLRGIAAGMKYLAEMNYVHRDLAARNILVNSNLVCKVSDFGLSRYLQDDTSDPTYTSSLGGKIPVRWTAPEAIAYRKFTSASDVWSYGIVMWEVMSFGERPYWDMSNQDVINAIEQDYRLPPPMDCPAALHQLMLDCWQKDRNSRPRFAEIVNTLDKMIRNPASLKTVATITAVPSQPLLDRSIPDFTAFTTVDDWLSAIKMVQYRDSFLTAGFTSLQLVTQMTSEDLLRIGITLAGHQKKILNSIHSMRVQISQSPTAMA
Jak2, sequence (O60674 whole entry, looked up): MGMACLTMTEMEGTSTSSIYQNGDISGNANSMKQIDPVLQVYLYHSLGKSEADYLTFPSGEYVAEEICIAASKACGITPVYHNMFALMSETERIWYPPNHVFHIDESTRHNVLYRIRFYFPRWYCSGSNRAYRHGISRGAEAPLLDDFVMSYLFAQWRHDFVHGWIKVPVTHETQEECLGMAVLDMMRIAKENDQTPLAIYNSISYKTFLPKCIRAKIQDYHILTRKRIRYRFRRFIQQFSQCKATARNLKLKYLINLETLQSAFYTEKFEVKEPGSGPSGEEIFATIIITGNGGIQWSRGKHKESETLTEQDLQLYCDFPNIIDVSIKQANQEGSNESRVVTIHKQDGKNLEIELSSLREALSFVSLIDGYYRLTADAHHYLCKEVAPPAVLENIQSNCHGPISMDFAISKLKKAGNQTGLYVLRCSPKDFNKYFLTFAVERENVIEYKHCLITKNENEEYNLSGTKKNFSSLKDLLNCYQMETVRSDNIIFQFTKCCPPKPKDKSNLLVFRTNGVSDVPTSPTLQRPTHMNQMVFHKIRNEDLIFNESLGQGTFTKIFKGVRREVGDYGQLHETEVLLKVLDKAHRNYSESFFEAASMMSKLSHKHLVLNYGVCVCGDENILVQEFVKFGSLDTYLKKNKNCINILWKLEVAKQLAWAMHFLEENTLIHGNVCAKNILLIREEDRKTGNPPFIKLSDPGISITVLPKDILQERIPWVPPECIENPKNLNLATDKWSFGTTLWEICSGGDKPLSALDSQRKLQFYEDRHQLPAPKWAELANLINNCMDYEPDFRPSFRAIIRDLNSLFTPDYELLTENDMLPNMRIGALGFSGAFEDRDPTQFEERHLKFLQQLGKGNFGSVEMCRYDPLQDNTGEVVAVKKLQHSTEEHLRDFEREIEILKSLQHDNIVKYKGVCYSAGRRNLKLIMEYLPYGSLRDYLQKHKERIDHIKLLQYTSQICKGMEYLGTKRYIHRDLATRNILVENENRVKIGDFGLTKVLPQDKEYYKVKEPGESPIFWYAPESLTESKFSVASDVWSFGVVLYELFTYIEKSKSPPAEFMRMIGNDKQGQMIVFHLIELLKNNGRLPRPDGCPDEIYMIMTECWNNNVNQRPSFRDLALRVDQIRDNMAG
EPHB2, sequence (P29323 whole entry, looked up): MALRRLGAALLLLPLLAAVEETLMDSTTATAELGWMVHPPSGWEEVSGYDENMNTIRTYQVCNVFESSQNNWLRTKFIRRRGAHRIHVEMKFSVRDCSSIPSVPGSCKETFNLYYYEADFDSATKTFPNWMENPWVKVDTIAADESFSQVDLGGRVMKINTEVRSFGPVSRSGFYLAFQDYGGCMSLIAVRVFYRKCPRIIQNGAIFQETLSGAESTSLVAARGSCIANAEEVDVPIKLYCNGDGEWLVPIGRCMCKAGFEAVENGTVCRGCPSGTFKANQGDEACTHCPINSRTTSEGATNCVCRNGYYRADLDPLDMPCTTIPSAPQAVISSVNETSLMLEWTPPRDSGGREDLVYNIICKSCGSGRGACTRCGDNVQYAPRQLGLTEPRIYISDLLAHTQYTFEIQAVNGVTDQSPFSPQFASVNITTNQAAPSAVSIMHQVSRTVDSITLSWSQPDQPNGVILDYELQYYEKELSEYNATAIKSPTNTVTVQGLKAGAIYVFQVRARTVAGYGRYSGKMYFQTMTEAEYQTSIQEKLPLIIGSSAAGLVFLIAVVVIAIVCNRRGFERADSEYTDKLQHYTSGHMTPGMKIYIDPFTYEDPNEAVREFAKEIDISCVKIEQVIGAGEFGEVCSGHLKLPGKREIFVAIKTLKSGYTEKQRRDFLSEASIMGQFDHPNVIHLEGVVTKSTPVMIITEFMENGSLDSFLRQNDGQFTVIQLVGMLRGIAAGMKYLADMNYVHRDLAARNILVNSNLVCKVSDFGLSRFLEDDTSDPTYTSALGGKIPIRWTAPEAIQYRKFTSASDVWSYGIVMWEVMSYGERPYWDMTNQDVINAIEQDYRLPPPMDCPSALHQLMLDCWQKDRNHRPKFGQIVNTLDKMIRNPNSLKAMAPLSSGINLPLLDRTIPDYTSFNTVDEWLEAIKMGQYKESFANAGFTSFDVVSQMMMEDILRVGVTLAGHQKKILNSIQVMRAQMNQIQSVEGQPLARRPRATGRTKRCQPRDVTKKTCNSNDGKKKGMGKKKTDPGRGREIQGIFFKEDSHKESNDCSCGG
Fes, sequence (P07332 whole entry, looked up): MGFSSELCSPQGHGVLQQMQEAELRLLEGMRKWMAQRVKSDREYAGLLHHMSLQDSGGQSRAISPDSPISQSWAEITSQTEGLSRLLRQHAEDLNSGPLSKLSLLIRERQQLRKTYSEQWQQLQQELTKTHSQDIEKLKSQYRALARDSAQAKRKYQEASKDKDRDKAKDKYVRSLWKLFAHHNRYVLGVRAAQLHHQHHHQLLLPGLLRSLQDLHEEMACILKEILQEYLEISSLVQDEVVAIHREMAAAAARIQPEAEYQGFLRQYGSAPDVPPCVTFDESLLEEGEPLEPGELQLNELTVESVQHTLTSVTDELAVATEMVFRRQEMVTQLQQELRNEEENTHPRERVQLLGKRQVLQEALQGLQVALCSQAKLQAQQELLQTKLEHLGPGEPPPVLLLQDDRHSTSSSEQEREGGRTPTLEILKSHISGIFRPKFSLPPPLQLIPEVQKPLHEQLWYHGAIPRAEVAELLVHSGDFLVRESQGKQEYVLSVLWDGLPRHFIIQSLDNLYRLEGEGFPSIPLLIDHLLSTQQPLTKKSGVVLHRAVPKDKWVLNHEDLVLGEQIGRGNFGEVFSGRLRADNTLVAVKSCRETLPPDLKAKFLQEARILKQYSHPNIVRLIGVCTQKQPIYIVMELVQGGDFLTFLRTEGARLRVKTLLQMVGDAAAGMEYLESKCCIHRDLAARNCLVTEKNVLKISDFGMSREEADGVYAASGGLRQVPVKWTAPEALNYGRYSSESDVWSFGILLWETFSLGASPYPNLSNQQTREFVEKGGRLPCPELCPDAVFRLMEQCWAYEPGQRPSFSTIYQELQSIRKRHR
Hck, sequence (P08631 whole entry, looked up): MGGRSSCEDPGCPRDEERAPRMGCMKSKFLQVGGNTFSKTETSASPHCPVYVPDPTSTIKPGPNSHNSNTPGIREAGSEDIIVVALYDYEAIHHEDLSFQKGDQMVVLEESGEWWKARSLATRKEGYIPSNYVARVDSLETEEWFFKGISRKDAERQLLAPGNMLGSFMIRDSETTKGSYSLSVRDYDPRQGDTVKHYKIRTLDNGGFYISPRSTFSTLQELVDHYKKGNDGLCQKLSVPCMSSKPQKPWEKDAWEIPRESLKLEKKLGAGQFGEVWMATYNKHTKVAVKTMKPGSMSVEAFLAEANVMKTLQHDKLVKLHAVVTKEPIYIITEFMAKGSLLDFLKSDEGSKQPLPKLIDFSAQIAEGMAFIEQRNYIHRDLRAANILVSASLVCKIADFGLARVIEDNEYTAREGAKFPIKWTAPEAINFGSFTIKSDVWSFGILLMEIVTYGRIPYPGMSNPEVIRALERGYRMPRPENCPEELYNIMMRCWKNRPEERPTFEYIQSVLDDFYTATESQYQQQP

Sequence | SH2 binding enrichment (Grb2 SH2) | SH2 binding enrichment (SHP2-C SH2) | SH2 binding enrichment (c-Src SH2) | phosphorylation enrichment (AncSZ) | phosphorylation enrichment (EPHB1) | phosphorylation enrichment (EPHB2) | phosphorylation enrichment (FGFR1) | phosphorylation enrichment (FGFR3) | phosphorylation enrichment (Fer (mouse)) | phosphorylation enrichment (Fes) | phosphorylation enrichment (Fyn) | phosphorylation enrichment (Hck) | phosphorylation enrichment (Jak2) | phosphorylation enrichment (MERTK) | phosphorylation enrichment (c-Abl (mouse)) | phosphorylation enrichment (c-Src)
CGASGYSATST [CERT1_Y143_S138C] | 0.741 | 0.756 | 0.556 | 1.02 | 0.55 | 0.706 | 0.457 | 0.872 | 0.675 | 1.08 | 0.476 | 0.51 | 1.06 | 0.523 | 0.746 | 0.489
KTNVSYFGALD [CACNB4_Y103_C104F] | 0.847 | 0.63 | 0.443 | 0.789 | 0.438 | 0.43 | 0.509 | 0.634 | 0.464 | 0.848 | 0.554 | 0.484 | 0.653 | 0.426 | 0.59 | 0.438
DAVAVYDGKIS [SH2D1A_Y7_H8D] | 0.735 | 0.999 | 0.47 | 0.721 | 0.589 | 0.622 | 0.44 | 0.565 | 0.456 | 0.988 | 0.655 | 2.02 | 0.778 | 0.498 | 0.728 | 0.83
NLMPAYHKCIQ [CYP21A2_Y190_Y191H] | 0.878 | 0.5 | 0.65 | 0.91 | 0.501 | 0.586 | 0.493 | 0.707 | 0.507 | 1.01 | 0.519 | 0.521 | 0.969 | 0.518 | 0.71 | 0.501
GHLYAYDWISI [BEST1_Y227] | 1.56 | 1.31 | 1.76 | 1.98 | 6.51 | 5.04 | 8.88 | 6.48 | 15 | 3.56 | 2.24 | 2.99 | 0.923 | 9.38 | 0.848 | 2.38
YIPFRYPKEFQ [IDS_Y234_H229Y] | 0.768 | 0.602 | 0.572 | 0.777 | 0.464 | 0.485 | 0.748 | 0.658 | 0.425 | 0.656 | 0.644 | 0.831 | 0.477 | 0.554 | 0.464 | 0.768
AEQEEYSAMRD [NRAS_Y64_G60E] | 1.01 | 0.785 | 0.456 | 1.4 | 0.541 | 0.566 | 0.525 | 0.737 | 0.469 | 1.26 | 0.458 | 0.571 | 1.14 | 0.478 | 0.802 | 0.536
MKVPLYETPAG [PGM5_Y358_V357L] | 1.01 | 1.69 | 1.08 | 1.64 | 19.4 | 27.8 | 0.52 | 0.632 | 16.7 | 1.06 | 1.82 | 6.03 | 0.767 | 9.79 | 11.2 | 1.81
SFMVRYNQPRV [GRIN2D_Y736_YF] | 1.1 | 0.959 | 0.894 | 0.832 | 0.557 | 0.698 | 0.473 | 0.57 | 0.423 | 0.954 | 0.446 | 0.505 | 0.685 | 0.389 | 0.582 | 0.398

The next lines start with results.

SH2 binding enrichment (Grb2 SH2) | SH2 binding enrichment (SHP2-C SH2) | SH2 binding enrichment (c-Src SH2) | Sequence | phosphorylation enrichment (AncSZ) | phosphorylation enrichment (EPHB1) | phosphorylation enrichment (EPHB2) | phosphorylation enrichment (FGFR1) | phosphorylation enrichment (FGFR3) | phosphorylation enrichment (Fer (mouse)) | phosphorylation enrichment (Fes) | phosphorylation enrichment (Fyn) | phosphorylation enrichment (Hck) | phosphorylation enrichment (Jak2) | phosphorylation enrichment (MERTK) | phosphorylation enrichment (c-Abl (mouse)) | phosphorylation enrichment (c-Src)
0.814 | 0.77 | 0.49 | SGVVPYEPPEV [TP53_Y220_V216G] | 1.12 | 0.581 | 0.738 | 0.588 | 0.781 | 0.572 | 1.21 | 0.667 | 0.524 | 0.986 | 0.443 | 0.659 | 0.481
0.685 | 0.916 | 0.515 | KKKKQYKGKFL [CASK_Y708_D710G_YF] | 0.617 | 0.447 | 0.549 | 0.485 | 0.579 | 0.439 | 0.526 | 0.532 | 0.523 | 0.535 | 0.533 | 0.547 | 0.638
0.825 | 0.699 | 0.441 | SYPHEYGSQEG [RBM10_Y48_R46H] | 0.835 | 0.483 | 0.44 | 0.54 | 0.559 | 0.411 | 0.87 | 0.402 | 0.458 | 0.767 | 0.465 | 0.591 | 0.415
0.701 | 0.572 | 0.484 | RLDGEYFTLQI [TP53_Y327_P322R] | 1.89 | 0.748 | 0.716 | 5.82 | 4.05 | 0.72 | 1.54 | 1.34 | 0.772 | 2.46 | 0.538 | 1.2 | 2.16
0.768 | 0.541 | 0.486 | KEAQVYQAFRL [SUCLG2_Y343_K347R] | 0.576 | 1.23 | 0.62 | 0.743 | 0.581 | 14 | 0.677 | 14.2 | 14 | 0.661 | 4.78 | 19.6 | 11.3
0.39 | 1.33 | 0.478 | PIPAAYNKYDQ [CDC73_Y290_R292K] | 0.707 | 0.417 | 0.599 | 0.608 | 0.448 | 0.394 | 0.904 | 0.46 | 0.595 | 0.754 | 0.617 | 0.944 | 0.689
0.9 | 0.681 | 0.467 | SFPREYGSQEG [RBM10_Y48_YF] | 0.715 | 0.392 | 0.447 | 0.491 | 0.567 | 0.387 | 0.755 | 0.506 | 0.565 | 0.532 | 0.48 | 0.461 | 0.475
